How the values were obtained:
[1] = target: Naja mossambica venom; assay: biolayer interferometry (wavelength shift, AUC of association curve); details: 120-s association phase; n=3; parent: est. 29; read off a plot
[2] = target: Naja siamensis venom; assay: as above; details: 120-s association phase; n=3; parent: est. 23; read off a plot

Substance | response [1] | response [2]
Homininae α-1 nAChR orthosteric site (loop C) mimotope, native S187W | 20 AUC | 16 AUC
Homininae α-1 nAChR orthosteric site (loop C) mimotope, native S187W; S191A | 38 AUC | 28 AUC
Homininae α-1 nAChR orthosteric site (loop C) mimotope, native S187W; T189F | 88 AUC | 50 AUC
Homininae α-1 nAChR orthosteric site (loop C) mimotope, native S187W; T189F; S191A | 76 AUC | 53 AUC
Homininae α-1 nAChR orthosteric site (loop C) mimotope, native S191A | 35 AUC | 28 AUC
Homininae α-1 nAChR orthosteric site (loop C) mimotope, native T189F | 46 AUC | 32 AUC
Homininae α-1 nAChR orthosteric site (loop C) mimotope, native T189F; S191A | 47 AUC | 31 AUC

— paper PMC8613972
